Data taken from article PMC3720618, “Computational and Experimental Insights into the Mechanism of Substrate Recognition and Feedback Inhibition of Protoporphyrinogen Oxidase” (PLoS ONE, 2013).
Positions count from the first letter of the chain named. In names and notes the source's numbering stands.

Key:
[1] = biological target: T1, human protoporphyrinogen IX oxidase (hPPO) (Homo sapiens, UniProt P50336); experiment: fluorescence product-formation time courses showing feedback (product) inhibition; format: biochemical
T1 construct: gene PPOX
T1 sequence (P50336 1-477): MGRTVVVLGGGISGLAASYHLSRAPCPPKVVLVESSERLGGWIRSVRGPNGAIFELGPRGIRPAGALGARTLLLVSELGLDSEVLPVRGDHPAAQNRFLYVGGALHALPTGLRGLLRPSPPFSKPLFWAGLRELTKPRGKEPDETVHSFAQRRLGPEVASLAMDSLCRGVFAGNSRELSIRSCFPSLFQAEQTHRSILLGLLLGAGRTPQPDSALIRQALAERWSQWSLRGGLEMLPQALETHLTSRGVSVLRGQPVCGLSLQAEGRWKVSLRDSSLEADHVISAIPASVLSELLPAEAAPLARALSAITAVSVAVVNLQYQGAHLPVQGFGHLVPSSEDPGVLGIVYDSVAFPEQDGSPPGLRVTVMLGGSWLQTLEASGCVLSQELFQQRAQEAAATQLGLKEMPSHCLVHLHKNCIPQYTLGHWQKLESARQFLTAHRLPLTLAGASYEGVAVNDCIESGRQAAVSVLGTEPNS

[2] = substrate: C=Cc1c2[nH]c(c1C)Cc1[nH]c(c(CCC(=O)O)c1C)Cc1[nH]c(c(C)c1CCC(=O)O)Cc1[nH]c(c(C)c1C=C)C2; experiment: purified protein
[3] = substrate: C=Cc1c2[nH]c(c1C)Cc1[nH]c(c(CCC(=O)O)c1C)Cc1[nH]c(c(C)c1CCC(=O)O)Cc1[nH]c(c(C)c1C=C)C2; experiment: continuous fluorometric enzyme kinetics on purified hPPO (Km); format: biochemical, Homo sapiens; conditions: FAD active site next to FAD; model: R97, L166, R168, G169, V170, F331, L334, M368

## C=CC1=C(C)c2cc3[nH]c(cc4nc(cc5[nH]c(cc1n2)c(C)c5CCC(=O)O)C(CCC(=O)O)=C4C)c(C)c3C=C [protoporphyrin IX]
[1]
  fluorescence product-formation time courses showing feedback (product) inhibitio: The product inhibition phenomenon was obvious at low concentrations of PPO

B1: human protoporphyrinogen IX oxidase (hPPO) (Homo sapiens; L166N) (protein)
chain: T1 sequence (P50336 1-477) with L166N
[2]; FAD substrate ring C
  Km: 5.13 µM
  kcat: 0.0303 ± 0.00217 s⁻¹
  kcat/Km: 5830 M⁻¹ s⁻¹

B2: human protoporphyrinogen IX oxidase (hPPO) (Homo sapiens; M368K) (protein)
chain: T1 sequence (P50336 1-477) with M368K
[2]; FAD substrate ring A
  Km: 5.63 µM
  kcat: 0.236 ± 0.0183 s⁻¹
  kcat/Km: 42000 M⁻¹ s⁻¹

B3: human protoporphyrinogen IX oxidase (hPPO) (Homo sapiens; F331T) (protein)
chain: T1 sequence (P50336 1-477) with F331T
[2]; FAD substrate ring D
  Km: 3.02 µM
  kcat: 0.151 ± 0.0127 s⁻¹
  kcat/Km: 50200 M⁻¹ s⁻¹

B4: human protoporphyrinogen IX oxidase (hPPO) (Homo sapiens) (protein)
chain: T1 sequence (P50336 1-477)
[3]
  Km: 2.08 µM
  kcat: 0.0495 ± 0.0025 s⁻¹
  kcat/Km: 23800 M⁻¹ s⁻¹

B5: human protoporphyrinogen IX oxidase (hPPO) (Homo sapiens; L334V) (protein)
chain: T1 sequence (P50336 1-477) with L334V
[2]; FAD substrate ring D
  Km: 7.08 µM
  kcat: 0.853 ± 0.103 s⁻¹
  kcat/Km: 120000 M⁻¹ s⁻¹

B6: human protoporphyrinogen IX oxidase (hPPO) (Homo sapiens; F331A) (protein)
chain: T1 sequence (P50336 1-477) with F331A
[2]; FAD substrate ring D
  Km: 6.60 µM
  kcat: 0.0727 ± 0.0065 s⁻¹
  kcat/Km: 11000 M⁻¹ s⁻¹

B7: human protoporphyrinogen IX oxidase (hPPO) (Homo sapiens; G169A) (protein)
chain: T1 sequence (P50336 1-477) with G169A
[2]; FAD substrate ring C
  Km: 2.16 µM
  kcat: 0.00617 ± 0.000667 s⁻¹
  kcat/Km: 2830 M⁻¹ s⁻¹

B8: human protoporphyrinogen IX oxidase (hPPO) (Homo sapiens; V170T) (protein)
chain: T1 sequence (P50336 1-477) with V170T
[2]; FAD substrate ring B
  Km: 2.97 µM
  kcat: 0.128 ± 0.011 s⁻¹
  kcat/Km: 43200 M⁻¹ s⁻¹

B9: human protoporphyrinogen IX oxidase (hPPO) (Homo sapiens; R168S) (protein)
chain: T1 sequence (P50336 1-477) with R168S
[2]; FAD substrate ring A
  Km: 11.33 µM
  kcat: 0.0553 ± 0.00367 s⁻¹
  kcat/Km: 4830 M⁻¹ s⁻¹
